Assays:
M11 = assay: flow cytometry competition (representative plot): shed CA 125/O772P against M11 binding to OVCAR-3 cells
monoclonal antibody 8A1 = assay: ELISA competition: shed CA 125/O772P at 25-fold excess against 8A1 binding to plate-bound O772P 3-repeat
monoclonal antibody 7G10 = assay: ELISA competition: shed CA 125/O772P at 25-fold excess against 7G10 binding to plate-bound O772P 3-repeat
monoclonal antibody 7F10 = assay: ELISA competition: shed CA 125/O772P at 25-fold excess against 7F10 binding to plate-bound O772P 3-repeat
[1] = biological target: monoclonal antibody 725.1; assay: ELISA competition: shed CA 125/O772P at 25-fold excess against 725.1 binding to plate-bound O772P 3-repeat
[2] = biological target: monoclonal antibody 446.1; assay: ELISA competition: shed CA 125/O772P at 25-fold excess against 446.1 binding to plate-bound O772P 3-repeat
[3] = biological target: monoclonal antibody 776.1; assay: ELISA competition: shed CA 125/O772P at 25-fold w/w excess against antibody binding to plate-bound O772P 3-repeat
[4] = biological target: monoclonal antibody 501.1; assay: as above
[5] = biological target: monoclonal antibody 117.1; assay: as above
OC125 = assay: as above
[6] = biological target: monoclonal antibody 368.1; assay: as above
[7] = biological target: monoclonal antibody 654.1; assay: ELISA competition: shed CA 125/O772P at 25-fold excess against 654.1 binding to plate-bound O772P 3-repeat
monoclonal antibody 4E7 = assay: ELISA competition: shed CA 125/O772P at 25-fold excess against 4E7 binding to plate-bound O772P 3-repeat
monoclonal antibody 16H9 = assay: ELISA competition: shed CA 125/O772P at 25-fold excess against 16H9 binding to plate-bound O772P 3-repeat
monoclonal antibody 7H1 = assay: ELISA competition: shed CA 125/O772P at 25-fold excess against 7H1 binding to plate-bound O772P 3-repeat
[8] = biological target: monoclonal antibody 621.1; assay: ELISA competition: shed CA 125/O772P at 25-fold excess against 621.1 binding to plate-bound O772P 3-repeat
[9] = biological target: monoclonal antibody 325.1; assay: ELISA competition: shed CA 125/O772P at 25-fold excess against 325.1 binding to plate-bound O772P 3-repeat
monoclonal antibody 7C6 = assay: ELISA competition: shed CA 125/O772P at 25-fold excess against 7C6 binding to plate-bound O772P 3-repeat
[10] = biological target: monoclonal antibody 633.1; assay: ELISA competition: shed CA 125/O772P at 25-fold excess against 633.1 binding to plate-bound O772P 3-repeat
monoclonal antibody 15C9 = assay: ELISA competition: shed CA 125/O772P at 25-fold excess against 15C9 binding to plate-bound O772P 3-repeat
monoclonal antibody 7A11 = assay: ELISA competition: shed CA 125/O772P at 25-fold excess against 7A11 binding to plate-bound O772P 3-repeat
[11] = biological target: monoclonal antibody 117.1; assay: flow cytometry competition (representative plot): shed CA 125/O772P against 117.1 binding to OVCAR-3 cells
monoclonal antibody 16C7 = assay: ELISA competition: shed CA 125/O772P at 25-fold excess against 16C7 binding to plate-bound O772P 3-repeat
monoclonal antibody 8B5 = assay: ELISA competition: shed CA 125/O772P at 25-fold excess against 8B5 binding to plate-bound O772P 3-repeat
monoclonal antibody 8C3 = assay: ELISA competition: shed CA 125/O772P at 25-fold excess against 8C3 binding to plate-bound O772P 3-repeat
monoclonal antibody 8G9 = assay: ELISA competition: shed CA 125/O772P at 25-fold excess against 8G9 binding to plate-bound O772P 3-repeat
monoclonal antibody 8E3 = assay: ELISA competition: shed CA 125/O772P at 25-fold excess against 8E3 binding to plate-bound O772P 3-repeat

Sequence of monoclonal antibody 117.1 (chain, as listed by the source, chain 1 of 2): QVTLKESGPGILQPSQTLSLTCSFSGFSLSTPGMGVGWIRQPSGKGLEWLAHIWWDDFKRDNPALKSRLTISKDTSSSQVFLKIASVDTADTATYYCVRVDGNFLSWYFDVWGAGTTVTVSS
Sequence of monoclonal antibody 117.1 (chain, as listed by the source, chain 2 of 2): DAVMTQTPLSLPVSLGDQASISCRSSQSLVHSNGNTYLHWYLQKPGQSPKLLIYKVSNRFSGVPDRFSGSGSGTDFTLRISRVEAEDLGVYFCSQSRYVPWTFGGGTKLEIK
Sequence of monoclonal antibody 776.1 (chain, as listed by the source, chain 1 of 2): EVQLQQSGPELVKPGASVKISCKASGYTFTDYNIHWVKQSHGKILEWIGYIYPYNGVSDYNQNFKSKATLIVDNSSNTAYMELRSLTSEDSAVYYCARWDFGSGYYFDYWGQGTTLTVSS
Sequence of monoclonal antibody 776.1 (chain, as listed by the source, chain 2 of 2): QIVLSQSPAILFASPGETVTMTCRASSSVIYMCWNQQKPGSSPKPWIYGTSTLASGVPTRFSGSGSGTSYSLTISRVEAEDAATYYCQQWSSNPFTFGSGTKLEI
Sequence of monoclonal antibody 368.1 (chain, as listed by the source, chain 1 of 2): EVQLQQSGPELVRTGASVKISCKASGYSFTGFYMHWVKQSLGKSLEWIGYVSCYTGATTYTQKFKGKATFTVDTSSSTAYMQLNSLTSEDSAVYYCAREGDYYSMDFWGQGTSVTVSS
Sequence of monoclonal antibody 368.1 (chain, as listed by the source, chain 2 of 2): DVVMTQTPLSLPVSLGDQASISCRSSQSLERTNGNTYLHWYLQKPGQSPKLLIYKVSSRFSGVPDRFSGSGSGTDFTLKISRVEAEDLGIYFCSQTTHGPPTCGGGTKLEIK
Sequence of OC125 (chain, as listed by the source, chain 1 of 2): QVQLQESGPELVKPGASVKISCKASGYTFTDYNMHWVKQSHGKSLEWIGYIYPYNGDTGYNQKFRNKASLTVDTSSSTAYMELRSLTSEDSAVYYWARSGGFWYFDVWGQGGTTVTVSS
Sequence of OC125 (chain, as listed by the source, chain 2 of 2): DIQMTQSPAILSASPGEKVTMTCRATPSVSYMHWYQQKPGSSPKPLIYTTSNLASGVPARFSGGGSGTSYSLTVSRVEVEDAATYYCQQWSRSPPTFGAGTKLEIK
Sequence of monoclonal antibody 501.1 (chain, as listed by the source, chain 1 of 2): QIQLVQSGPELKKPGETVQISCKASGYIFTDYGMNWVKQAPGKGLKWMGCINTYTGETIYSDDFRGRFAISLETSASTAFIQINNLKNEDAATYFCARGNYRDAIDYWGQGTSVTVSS
Sequence of monoclonal antibody 501.1 (chain, as listed by the source, chain 2 of 2): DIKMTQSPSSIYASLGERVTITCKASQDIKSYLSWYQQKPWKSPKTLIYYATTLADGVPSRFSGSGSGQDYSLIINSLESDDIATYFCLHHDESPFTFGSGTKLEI
Sequence of monoclonal antibody 16H9 (chain, as listed by the source, chain 1 of 2): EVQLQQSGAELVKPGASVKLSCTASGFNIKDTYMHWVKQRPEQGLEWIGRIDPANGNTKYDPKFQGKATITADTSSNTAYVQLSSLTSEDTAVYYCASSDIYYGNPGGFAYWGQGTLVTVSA
Sequence of monoclonal antibody 16H9 (chain, as listed by the source, chain 2 of 2): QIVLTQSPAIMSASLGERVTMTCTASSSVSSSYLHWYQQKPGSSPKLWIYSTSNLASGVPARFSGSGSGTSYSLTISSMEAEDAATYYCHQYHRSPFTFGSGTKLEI
Sequence of monoclonal antibody 725.1 (chain, as listed by the source, chain 1 of 2): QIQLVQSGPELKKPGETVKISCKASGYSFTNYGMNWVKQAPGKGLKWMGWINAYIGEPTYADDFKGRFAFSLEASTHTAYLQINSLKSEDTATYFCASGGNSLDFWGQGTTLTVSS
Sequence of monoclonal antibody 725.1 (chain, as listed by the source, chain 2 of 2): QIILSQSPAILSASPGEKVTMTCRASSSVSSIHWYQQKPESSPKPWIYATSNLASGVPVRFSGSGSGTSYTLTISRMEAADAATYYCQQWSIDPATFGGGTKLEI

shed CA 125/O772P polypeptide, Q8WXI7 1-14401
IC50 (M11): 3 µg/mL | % inh. binding (monoclonal antibody 8A1): 8% | % inh. binding (monoclonal antibody 7G10): 3% | % inh. binding (monoclonal antibody 7F10): 6% | % inh. binding [1]: 7% | % inh. binding [2]: 7% | percent inhibition of binding [3]: 17% | percent inhibition of binding [4]: 15% | percent inhibition of binding [5]: 11% | percent inhibition of binding (OC125): 95% | percent inhibition of binding [6]: 0% | % inh. binding [7]: 9% | % inh. binding (monoclonal antibody 4E7): 7% | % inh. binding (monoclonal antibody 16H9): 0% | % inh. binding (monoclonal antibody 7H1): 4% | % inh. binding [8]: 2% | % inh. binding [9]: 2% | % inh. binding (monoclonal antibody 7C6): 2% | % inh. binding [10]: 7% | % inh. binding (monoclonal antibody 15C9): 5% | % inh. binding (monoclonal antibody 7A11): 5% | IC50 [11]: > 1000 µg/mL | % inh. binding (monoclonal antibody 16C7): 3% | % inh. binding (monoclonal antibody 8B5): 6% | % inh. binding (monoclonal antibody 8C3): 5% | % inh. binding (monoclonal antibody 8G9): 7% | % inh. binding (monoclonal antibody 8E3): 4%

From US20050064518A1
